Patent US20170088631A1 (Hoffmann-La Roche, published 2017)

Legend:
[1] = biological target: T1, human Fibroblast Activation Protein (FAP), recombinant (human, UniProt Q12884 27-760); test: SPR (Biacore), His-tagged human FAP captured by anti-His antibody, antibody as analyte, 25 C; apparent bivalent affinity (avidity), 1:1 fit
T1 construct: they are treated as one molecule; also called Hu FAP; huFAP
Description: The FAP binding activity of the IgG-IL-2 qm immunoconjugates based on 4G8 and 28H1 anti-FAP antibodies were determined by surface plasmon resonance (SPR) on a Biacore machine in comparison to the corresponding unmodified IgG antibodies. […] Temperature was 25° C. and HBS-EP was used as buffer. Analyte concentration was 50 nM down to 0.05 nM at a flow rate of 50 μl/min (association: 300 s, dissociation: 900 s, regeneration: 60 s with 10 mM glycine pH 2). Fitting was performed based on a 1:1 binding model, RI=0, Rmax=local (because of capture format).

[2] = biological target: T2, human A2 domain of Tenascin-C (TNC A2), recombinant (human, UniProt P24821 1167-1256, limits assumed, biotinylated via a C-terminal avi-tag (Example 5)); test: SPR (ProteOn XPR36), NLC chip, biotinylated TNC A2 as ligand (250 RU), construct as analyte, 1:1 global fit; human TNC A2 as ligand
T2 construct: domain: A2 domain of Tenascin-C; also called human TNC A2
T2 sequence (looked up): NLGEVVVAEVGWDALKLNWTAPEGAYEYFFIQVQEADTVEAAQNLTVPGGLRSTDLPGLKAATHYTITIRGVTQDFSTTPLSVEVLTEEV

[3] = biological target: T1, human Fibroblast Activation Protein …; test: SPR (ProteOn XPR36), GLM chip, huFAP as ligand by amine coupling (500 RU), construct as analyte, 1:1 global fit

T1 sequence (Q12884 27-760 limits assumed): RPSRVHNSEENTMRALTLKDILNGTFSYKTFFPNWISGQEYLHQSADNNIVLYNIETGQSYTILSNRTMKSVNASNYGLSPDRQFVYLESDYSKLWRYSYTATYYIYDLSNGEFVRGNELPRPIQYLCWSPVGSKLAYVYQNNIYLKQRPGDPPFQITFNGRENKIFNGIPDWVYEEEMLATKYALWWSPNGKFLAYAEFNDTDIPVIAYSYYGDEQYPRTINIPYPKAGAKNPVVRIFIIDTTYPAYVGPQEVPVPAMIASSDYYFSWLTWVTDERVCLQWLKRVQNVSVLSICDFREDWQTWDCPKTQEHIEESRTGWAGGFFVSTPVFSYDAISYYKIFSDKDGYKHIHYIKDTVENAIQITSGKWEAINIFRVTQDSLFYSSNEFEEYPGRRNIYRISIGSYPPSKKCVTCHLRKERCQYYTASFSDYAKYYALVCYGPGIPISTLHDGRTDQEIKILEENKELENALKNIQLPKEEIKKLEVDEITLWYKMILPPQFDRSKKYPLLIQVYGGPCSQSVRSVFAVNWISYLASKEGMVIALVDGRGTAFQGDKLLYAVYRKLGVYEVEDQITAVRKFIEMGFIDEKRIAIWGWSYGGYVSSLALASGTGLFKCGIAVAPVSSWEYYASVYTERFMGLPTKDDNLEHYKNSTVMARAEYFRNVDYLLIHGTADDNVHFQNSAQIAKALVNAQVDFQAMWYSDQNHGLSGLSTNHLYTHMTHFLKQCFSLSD

B1: 4G8 IgG (unmodified anti-FAP antibody) (antibody, V domains shown)
VH: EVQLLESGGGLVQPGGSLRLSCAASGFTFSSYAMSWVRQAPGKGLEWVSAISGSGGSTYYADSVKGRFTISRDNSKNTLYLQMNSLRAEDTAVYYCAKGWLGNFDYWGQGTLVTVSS
VL: EIVLTQSPGTLSLSPGERATLSCRASQSVSRSYLAWYQQKPGQAPRLLIIGASTRATGIPDRFSGSGSGTDFTLTISRLEPEDFAVYYCQQGQVIPPTFGQGTKVEIK
For B1, the Kd [1] was 0.05 nM.

B2: TNC A2-targeted 2B10-based IgG-IL-10 immunoconjugate with monomeric IL-10 (IL-10M1) (other)
heavy 1: EIVLTQSPGTLSLSPGERATLSCRASQSVSRSYLAWYQQKPGQAPRLLIIGASTRATGIPDRFSGSGSGTDFTLTISRLEPEDFAVYYCQQGQVIPPTFGQGTKVEIKRTVAAPSVFIFPPSDEQLKSGTASVVCLLNNFYPREAKVQWKVDNALQSGNSQESVTEQDSKDSTYSLSSTLTLSKADYEKHKVYACEVTHQGLSSPVTKSFNRGEC
heavy 2: EIVLTQSPGTLSLSPGERATLSCRASQSVSSSYLAWYQQKPGQAPRLLIYGASSRATGIPDRFSGSGSGTDFTLTISRLEPEDFAVYYCQQGQYTPPTFGQGTKVEIKRTVAAPSVFIFPPSDEQLKSGTASVVCLLNNFYPREAKVQWKVDNALQSGNSQESVTEQDSKDSTYSLSSTLTLSKADYEKHKVYACEVTHQGLSSPVTKSFNRGEC
light: EIVLTQSPGTLSLSPGERATLSCRASQSVSSNYLAWYQQKPGQAPRLLIYGAYIRATGIPDRFSGSGSGTDFTLTISRLEPEDFAVYYCQQGQVIPPTFGQGTKVEIKRTVAAPSVFIFPPSDEQLKSGTASVVCLLNNFYPREAKVQWKVDNALQSGNSQESVTEQDSKDSTYSLSSTLTLSKADYEKHKVYACEVTHQGLSSPVTKSFNRGEC
notes: P329G LALA in the Fc; also called 2B10 IgG-IL-10M1; TNCA2 2B10 IgG-IL-10M1
B2 was tested, and the Kd [2] was 0.052 nM, the koff [2] was 9.35e-05 s⁻¹ and the kon [2] was 1.8e+06 M⁻¹ s⁻¹.

B3: FAP-targeted 4G8-based IgG-IL-10 immunoconjugate with monomeric IL-10 (IL-10M1) (other)
heavy 1: not shown
heavy 2: not shown
light: EVQLLESGGGLVQPGGSLRLSCAASGFTFSRYGMSWVRQAPGKGLEWVSAISGSGGSTYYADSVKGRFTISRDNSKNTLYLQMNSLRAEDTAVYYCAKAHNAFDYWGQGTLVTVSSASTKGPSVFPLAPSSKSTSGGTAALGCLVKDYFPEPVTVSWNSGALTSGVHTFPAVLQSSGLYSLSSVVTVPSSSLGTQTYICNVNHKPSNTKVDKKVEPKSCDSSSSGSSSSGSSSSGAPASSSTKKTQLQLEHLLLDLQMILNGINNYKNPKLTRMLTAKFAMPKKATELKHLQCLEEELKPLEEVLNGAQSKNFHLRPRDLISNINVIVLELKGSETTFMCEYADETATIVEFLNRWITFAQSIISTLTSGGGGSGGGGSGGGGEVQLLESGGGLVQPGGSLRLSCAASGFTFSRYGMSWVRQAPGKGLEWVSAISGSGGSTYYADSVKGRFTISRDNSKNTLYLQMNSLRAEDTAVYYCAKAHNAFDYWGQGTLVTVSSASTKGPSVFPLAPSSKSTSGGTAALGCLVKDYFPEPVTVSWNSGALTSGVHTFPAVLQSSGLYSLSSVVTVPSSSLGTQTYICNVNHKPSNTKVDKKVEPKSCD
notes: P329G LALA in the Fc; also called 4G8 IgG-IL-10M1; FAP 4G8 IgG-IL-10M1
In the case of B3, the Kd [3] is reported as 0.026 nM, the koff [3] is reported as 1.75e-05 s⁻¹ and the kon [3] is reported as 668000 M⁻¹ s⁻¹.

B4: 28H1 IgG (unmodified anti-FAP antibody) (antibody, V domains shown)
VH: EVQLLESGGGLVQPGGSLRLSCAASGFTFSSHAMSWVRQAPGKGLEWVSAIWASGEQYYADSVKGRFTISRDNSKNTLYLQMNSLRAEDTAVYYCAKGWLGNFDYWGQGTLVTVSS
VL: EIVLTQSPGTLSLSPGERATLSCRASQSVSRSYLAWYQQKPGQAPRLLIIGASTRATGIPDRFSGSGSGTDFTLTISRLEPEDFAVYYCQQGQVIPPTFGQGTKVEIK
notes: Corresponding unmodified IgG of the 28H1 immunoconjugate
B4 gave a Kd [1] of 0.2 nM.
